This note sets out measurements from patent publication US11760780B2, “Targeting dimerization of BAX to modulate BAX activity” (ALBERT EINSTEIN COLLEGE OF MEDICINE, priority 2014, dated 2023).

Positions of bridges follow the written chain, without caps; N, C: chain ends. Non-standard residues stand in square brackets, D forms with d. S5 = C=CCCC[C@](C)(N)C(=O)O

What all share (type): biochemical
The target in experiment [1] is T1, BAX (Homo sapiens, UniProt Q07812).
T1 construct: made in house; host or cells: E. coli BL21 (DE3) codon+
In words: Liposomal permeabilization assay (ANTS/DPX release). Here is the method:
(§1) Liposomes were composed of the following molar percentages of lipids (Avanti Polar Lipids): phosphatidylcholine, 48%; phosphatidylethanolamine, 28%; phosphatidylinositol, 10%; dioleoyl phosphatidylserine, 10%; and tetraoleoyl cardiolipin, 4% and were loaded with ANTS/DPX (Molecular Probe) upon extrusion. BAX (400 nM) was combined with BIM SAHBA2 at the indicated concentrations in 96-well format (Corning) and then liposomes were added (10 μl from 50 mM total lipid stock) in assay buffer (10 mM HEPES, pH 7, 200 mM KCl, 5 mM MgCl2, and 0.2 mM EDTA) to a final volume of 100 μl. ANTS/DPX release was quantified based on the increase in fluorescence intensity that occurs when the ANTS fluorophore is separated from the DPX quencher upon release from the liposomes into the supernatant. Fluorescence (λex=355 nm and λem=520 nm) was measured over time at 30° C. using a Tecan Infinite M1000 plate reader. The percentage release of ANTS/DPX at 90 min was calculated as percentage release=((F−F0)/(F100−F0))×100, where F0 and F100 are baseline and maximal fluorescence, respectively. 1% Triton treatment is used to determine the maximum amount of liposomal release per assay, and this value sets the 100% value.

Experiment [2] has as its target T2, BAX (Homo sapiens, UniProt Q07812, P168G).
T2 construct: made in house; host or cells: E. coli BL21 (DE3) codon+
The experiment is described as above. As to conditions: purified BAX P168G dimer, increasing doses, maximum release at 90 min, FIG. 14B. Here is the method:
as §1

The target of the next experiment is T3, BAX 4MA dimer (Homo sapiens, UniProt Q07812, C126S/C62S/I136C/V121C).
T3 construct: made in house; host or cells: E. coli BL21 (DE3) codon+
Nature of the experiment: BAX dimer dissociation / oligomerization by size exclusion chromatography. As to conditions: FIG. 14A. Here is the method: Superdex 75 10/300 GL and 200 10/300 GL (GE Healthcare) columns were used for size exclusion chromatography of recombinant proteins and cell extracts. Recombinant protein was injected in columns equilibrated with a buffer containing 20 mM HEPES pH 7.2, 150 mM KCl, 1 mM DTT. 1 mg of cytosolic or membrane extracts was applied to a Superdex 200 10/300 GL equilibrated in buffer containing 10 mM Tris, pH 7.5, 1 mM EGTA, 200 mM Sucrose and Complete Protease Inhibitors. Fractions of 500 μl were collected, and 30 μl of each fraction was analyzed by SDS-PAGE and immunoblotting. All operations were run at 4° C. Gel filtration molecular weight markers (GE Healthcare) were also subjected to the columns to obtain a standard curve for the estimation of the molecular weight of the proteins.
BAX wild type and mutants were concentrated to ˜0.5 mM in BAX buffer (10 mM HEPES pH 7, 150 mM KCl, 1 mM DTT) and incubated at 20° C. for 1-3 days before diluting to a total volume of 250 μl and loaded onto a Superdex 75 HR 10/30 size exclusion column (GE Healthcare). These conditions allow a controlled dimerization process than aggregation due to BAX activation. Separation of monomeric and dimeric BAX was achieved using a flow rate of 0.5 ml/min at 4° C. The chromatogram traces show the monomeric and dimeric peaks at ˜11.8 and ˜10.4 ml, respectively. […]

T1 sequence (Q07812 whole entry): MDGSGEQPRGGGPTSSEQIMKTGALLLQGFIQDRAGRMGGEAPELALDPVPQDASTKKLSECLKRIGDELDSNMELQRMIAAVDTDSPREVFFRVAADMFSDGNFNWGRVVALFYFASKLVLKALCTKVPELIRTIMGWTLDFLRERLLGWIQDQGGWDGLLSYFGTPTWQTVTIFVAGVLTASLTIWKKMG
T3 sequence (Q07812 whole entry C62S/V121C/C126S/I136C): as the sequence (Q07812 whole entry) above, with C62S, V121C, C126S, I136C counted along it
T2 sequence (Q07812 whole entry P168G): as the sequence (Q07812 whole entry) above, with P168G counted along it

“N-acetylated^145EIWIAQELRS5IGDS5FNAYYA^164-CONH2 (Ac-EIWIAQELR[S5]IGD[S5]FNAYYA-NH2; staple 10-14; SMILES CC[C@H](C)[C@H](NC(=O)[C@H](Cc1c[nH]c2ccccc12)NC(=O)[C@@H](NC(=O)[C@H](CCC(=O)O)NC(C)=O)[C@@H](C)CC)C(=O)N[C@@H](C)C(=O)N[C@@H](CCC(N)=O)C(=O)N[C@@H](CCC(=O)O)C(=O)N[C@@H](CC(C)C)C(=O)N[C@@H](CCCNC(=N)N)C(=O)N[C@@]1(C)CCCC=CCCC[C@@](C)(C(=O)N[C@@H](Cc2ccccc2)C(=O)N[C@@H](CC(N)=O)C(=O)N[C@@H](C)C(=O)N[C@@H](Cc2ccc(O)cc2)C(=O)N[C@@H](Cc2ccc(O)cc2)C(=O)N[C@@H](C)C(N)=O)NC(=O)[C@H](CC(=O)O)NC(=O)CNC(=O)[C@H]([C@@H](C)CC)NC1=O) [BIM SAHBA2, Hydrocarbon-stapled peptide corresponding to the BH3 domain of BIM]”: the “membrane permeabilization by BAX dimer upon addition of activator” value with BAX [1] (SEC-isolated BAX dimer, liposomes, FIG. 1D) is “nearly inactive”. In addition, the “membrane permeabilization by BAX monomer upon addition of activator” value in the experiment with BAX [1] (SEC-isolated BAX monomer, liposomes, FIG. 1D) was “activated and induced membrane permeabilization”. Moreover, the “doses required to activate BAX WT dimer versus dose that fully activates BAX WT monomer” value with BAX [1] (purified BAX WT dimer, maximum release at 90 min, FIG. 14B) was “significantly higher”. Besides, the “activation of BAX P168G dimer compared to BAX WT dimer” value in the experiment with BAX [2] is on record as “more resistant to activation”. Besides, the “activation of BAX 4MA monomer to induce BAX oligomerization” value with BAX 4MA dimer (in the presence of reducing agent (DTT)) is “can also activate BAX 4MA monomer to induce BAX oligomerization”. Besides, in the experiment with BAX 4MA dimer (isolated BAX 4MA dimer, high doses, Superdex 75 SEC), the “competition and dissociation of BAX 4MA dimer to monomer” value is “can compete and dissociate the dimer into monomers”.
